Where no end group is shown, it is not given here. The star is where a group is joined. Biotin = O=C1N[C@H]2[C@H](CS[C@H]2CCCCC(=O)*)N1
How the values were obtained:
[1] = biological target: T1, Peptide 3-BSA (SSMEDYVNFN-C conjugated to BSA) (human); test: ELISA; Ab 0.125 ug/mL; repII
T1 peptide: SSMEDYVNFNC(BSA)
Protocol: (§1) In brief, plates with each non-conjugated peptide (50 μg/mL) or BSA-conjugated peptide (5 μg/mL) were coated in 0.58M carbonate-bicarbonate buffer pH9.5, 100 μL/well, at 4° C. […] After washing, wells were incubated with the 3, 3′,5,5′-Tetramethylbenzidine (TMB) HRP substrate and reactions were stopped with 2M HCl and OD450 was recorded.

[2] = biological target: T2, Peptide 4-BSA (SMEDYVNFNF-C conjugated to BSA) (human); test: ELISA; Ab 0.125 ug/mL; repII
T2 peptide: SMEDYVNFNFC(BSA)
Protocol: as §1

[3] = biological target: T3, Peptide 1, non-conjugated (MADDYGSEST-C) (human); test: ELISA; Ab 0.125 ug/mL; repII
T3 construct: With the extra C-terminal Cys
T3 peptide: MADDYGSESTC
Protocol: as §1

[4] = biological target: T4, Peptide 2, non-conjugated (GSESTSSMED-C) (human); test: ELISA; Ab 0.125 ug/mL; repII
T4 construct: With the extra C-terminal Cys
T4 peptide: GSESTSSMEDC
Protocol: as §1

[5] = biological target: T5, Peptide 3, non-conjugated (SSMEDYVNFN-C) (human); test: ELISA; Ab 0.125 ug/mL; repII
T5 construct: With the extra C-terminal Cys
T5 peptide: SSMEDYVNFNC
Protocol: as §1

[6] = biological target: T6, Peptide 4, non-conjugated (SMEDYVNFNF-C) (human); test: ELISA; Ab 0.125 ug/mL; repII
T6 construct: With the extra C-terminal Cys
T6 peptide: SMEDYVNFNFC
Protocol: as §1

[7] = biological target: T7, BSA (negative control coating) (bovine, UniProt P02769 25-607); test: ELISA; Ab 0.125 ug/mL; repII
T7 construct: also called Negative control BSA
Protocol: as §1

[8] = biological target: T8, antigen peptide-BSA (immunisation peptide #1 MADDYGSESTSSMEDYVNFNF-C conjugated to BSA) (human, extra C-terminal Cys conjugated to BSA); test: ELISA; Ab 0.125 ug/mL; repII
T8 construct: also called Positive control antigen peptide-BSA; MADDY peptide
T8 peptide: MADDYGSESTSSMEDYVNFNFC
Protocol: as §1

[9] = biological target: T9, Peptide 1-BSA (MADDYGSEST-C conjugated to BSA) (human); test: ELISA; Ab 0.125 ug/mL; repII
T9 peptide: MADDYGSESTC(BSA)
Protocol: as §1

[10] = biological target: T10, Peptide 2-BSA (GSESTSSMED-C conjugated to BSA) (human); test: ELISA; Ab 0.125 ug/mL; repII
T10 peptide: GSESTSSMEDC(BSA)
Protocol: as §1

[11] = biological target: T3, Peptide 1, non-conjugated (MADDYGSEST-C); test: ELISA; Ab 0.0625 ug/mL; repII
Protocol: as §1

[12] = biological target: T5, Peptide 3, non-conjugated (SSMEDYVNFN-C); test: ELISA; Ab 0.0625 ug/mL; repII
Protocol: as §1

[13] = biological target: T8, antigen peptide-BSA (immunisation …); test: ELISA; Ab 0.0625 ug/mL; repII
Protocol: as §1

[14] = biological target: T9, Peptide 1-BSA (MADDYGSEST-C conjugated …); test: ELISA; Ab 0.0625 ug/mL; repII
Protocol: as §1

[15] = biological target: T11, biotin-peptide TSSMEDYVNF (human); test: ELISA biotin-peptide; scFv 5 ug/mL; repII
T11 peptide: Biotin-TSSMEDYVNF
Protocol: (§2) The peptides were synthesized naked or with a N-terminal Biotin modification with a purity of >98%. All four scFvs were verified by ELISA that can be detected with anti-His antibodies. ELISA was performed for scFv-peptide binding validation. Briefly, naked peptides were coated (50 μg/mL) in 0.58M carbonate-bicarbonate buffer pH9.5, 100 μL/well, 4° C. O/N. Then after blocking (3% BSA-PBS, 300 μL/well 37° C. 1.5 h) and washing (PBS+Tween-20 0.05% v/v (0.05% PBST), wells were incubated with each purified scFv antibody at concentration of 1 μg/mL in PBS at 37° C. 1 h. After washing (0.05% PBST), wells were incubated with secondary antibodies (goat anti-His IgG-HRP) in PBS, 37° C., 30 min. After washing, and incubation with TMB substrate, reactions were stopped with 2M HCl and reading was quantified at OD450.
(§3) ELISA with biotin-conjugated peptides (5 μg/mL) was performed very similar to described above with minor modifications.
(§4) A full curve ELISA was performed for each positive scFv/biotin-peptide pair in order to confirm previous results. Tables 15-17 show ELISA results of the dose-dependent full curve for each positive peptide with scFv “CCR9_HUM”, “Comp-2” and “Comp-3”, respectively.

[16] = biological target: T12, biotin-peptide SSMEDYVNFN (human); test: ELISA biotin-peptide; scFv 5 ug/mL; repII
T12 peptide: Biotin-SSMEDYVNFN
Protocol: as §2, §3, §4

[17] = biological target: T13, biotin-peptide SMEDYVNFNF (human); test: ELISA biotin-peptide; scFv 5 ug/mL; repII
T13 peptide: Biotin-SMEDYVNFNF
Protocol: as §2, §3, §4

[18] = biological target: T14, biotin-peptide MEDYVNFNFT (human); test: ELISA biotin-peptide; scFv 5 ug/mL; repII
T14 peptide: Biotin-MEDYVNFNFT
Protocol: as §2, §3, §4

[19] = biological target: T15, naked peptide TDFTSPIPNM (human); test: ELISA, naked peptide
T15 peptide: TDFTSPIPNM

[20] = biological target: T16, naked peptide TSPIPNMADD (human); test: ELISA, naked peptide
T16 peptide: TSPIPNMADD

[21] = biological target: T17, naked peptide MADDYGSEST (human); test: ELISA, naked peptide
T17 peptide: MADDYGSEST

[22] = biological target: T18, naked peptide DYGSESTSSM (human); test: ELISA, naked peptide
T18 peptide: DYGSESTSSM

[23] = biological target: T19, naked peptide TSSMEDYVNF (human); test: ELISA, naked peptide
T19 peptide: TSSMEDYVNF

[24] = biological target: T20, naked peptide SMEDYVNFNF (human); test: ELISA, naked peptide
T20 peptide: SMEDYVNFNF

[25] = biological target: T21, naked peptide MEDYVNFNFT (human); test: ELISA, naked peptide
T21 peptide: MEDYVNFNFT

[26] = biological target: T22, naked peptide FNFTDFYCEK (human); test: ELISA, naked peptide
T22 peptide: FNFTDFYCEK

[27] = biological target: T23, naked peptide YCEKNNVRQF (human); test: ELISA, naked peptide
T23 peptide: YCEKNNVRQF

[28] = biological target: T24, naked peptide KNNVRQFAS (human); test: ELISA, naked peptide
T24 peptide: KNNVRQFAS

T7 sequence (P02769 25-607 limits assumed): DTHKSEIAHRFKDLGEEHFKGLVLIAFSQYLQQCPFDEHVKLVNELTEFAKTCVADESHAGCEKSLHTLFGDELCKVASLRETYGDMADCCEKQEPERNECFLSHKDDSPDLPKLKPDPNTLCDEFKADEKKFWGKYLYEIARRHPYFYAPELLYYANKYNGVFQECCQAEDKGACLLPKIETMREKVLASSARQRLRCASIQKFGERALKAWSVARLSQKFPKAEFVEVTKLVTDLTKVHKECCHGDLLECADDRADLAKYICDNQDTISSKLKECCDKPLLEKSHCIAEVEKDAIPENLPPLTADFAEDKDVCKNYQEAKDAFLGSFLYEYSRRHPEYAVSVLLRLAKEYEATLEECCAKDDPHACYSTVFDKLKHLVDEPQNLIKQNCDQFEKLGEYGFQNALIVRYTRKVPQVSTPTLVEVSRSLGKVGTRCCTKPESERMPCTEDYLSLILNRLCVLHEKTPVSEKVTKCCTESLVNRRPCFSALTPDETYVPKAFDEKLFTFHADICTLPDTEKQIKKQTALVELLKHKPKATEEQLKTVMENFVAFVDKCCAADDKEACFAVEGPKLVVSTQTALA

B1: anti-CCR9 antibody clone 115 (murine, from hybridoma #115) (antibody, V domains shown)
VH: QVQLKQSGPELVKPGTSVRVSCTASGYSFTDYIIYWVKQSHGRSLEWIGYIDPNNYNTRYSQKFKGKATLTVDKSSTSAFMHLNSLTSDDSAVYYCARDVYWGQGTTLTVSS
VL: DVVMTQTPLSLTVSLGDQASISCRSSQSLVHSNGKTYLQWYLQKPGQSPKLLIYKVSNRFSGVPDRFSGSGSGTDFTLKISRVEAEDLGVYFCAQSTHVWTFGGGTKLEIKR
notes: Mouse IgG1
OD450 [1]: 1.97 OD | OD450 [2]: 2.39 OD | OD450 [3]: 0.02 OD | OD450 [4]: 0.01 OD | OD450 [5]: 1.77 OD | OD450 [6]: 1.84 OD | OD450 [7]: 0.01 OD | OD450 [8]: 2.31 OD | OD450 [9]: 0.01 OD | OD450 [10]: 0.01 OD | OD450 [11]: 0.01 OD | OD450 [12]: 1.67 OD | OD450 [13]: 2.08 OD | OD450 [14]: 0.01 OD

B2: CCR9_HUM2 scFv (humanized anti-CCR9 scFv, SEQ ID NO: 17 with C-terminal 6xHis tag) (scFv)
scFv: QVQLVQSGAEVKKPGASVKVSCTASGYSFTDYIIYWVKQAHGQSLEWMGYIDPNNYNTRYSQKFQGKVTITVDKSSTSAYMELNSLTSDDTAVYYCARDVYWGQGTTVTVSSGGGGSGGGGSGGGGSGGGGSDVVMTQTPLSLSVTPGQPASISCRSSQSLVHSNGKTYLQWYLQKPGQSPKLLIYKVSNRFSGVPDRFSGSGSGTDFTLKISRVEAEDVGVYFCAQSTHVWTFGGGTKVEIKRAHHHHHH
OD450 [15]: 1.38 OD | OD450 [16]: 1.82 OD | OD450 [17]: 1.79 OD | OD450 [18]: 1.72 OD

B3: Comparative antibody 1 (Comp-1) scFv, SEQ ID NO: 10 from WO2023/037125 A1, His-tagged (scFv)
scFv: QVQLKESGPGLVQPSQTLSLTCTVSGFSVASYDMHWVRLPPGKGLEWMGIIWANGNTHYNSGLKSRLSISRDTSKSQVFLKMNSLQTEDTAIYFCTRGGFAYWGQGTLVTVSSGGGGSGGGGSGGGGSGGGGSDVVMTQTPVSLSVSLGGQVSISCRSSQSLVHNNGNTYLSWYLQKPGQSPQLLIYKVSNRFSGVSDRFSGSGSGTDFTLKISRVEPDDLGVYYCGQGTQYPTFGGGTKLELKHHHHHH
binding result [19]: no binding (tested: 1 ug/mL) | binding result [20]: no binding (tested: 1 ug/mL) | binding result [21]: no binding (tested: 1 ug/mL) | binding result [22]: no binding (tested: 1 ug/mL) | binding result [23]: no binding (tested: 1 ug/mL) | binding result [24]: no binding (tested: 1 ug/mL) | binding result [25]: no binding (tested: 1 ug/mL) | binding result [26]: no binding (tested: 1 ug/mL) | binding result [27]: no binding (tested: 1 ug/mL) | binding result [28]: no binding (tested: 1 ug/mL)

Reference: patent US20260232732A1 (FUNDACI INSTITUT DE RECERCA CONTRA LA LEUC MIA JOSEP …, published 2026)
